One molecule from patent publication US20250108090A1 (published 2025) can be followed below.

The target of this assay is T1, mouse apoptosis inhibitor of macrophage (AIM), wild-type recombinant (mouse, UniProt Q9QWK4 22-352).
T1 construct: mature; also called rAIM; mouse AIM
T1 sequence (looked up): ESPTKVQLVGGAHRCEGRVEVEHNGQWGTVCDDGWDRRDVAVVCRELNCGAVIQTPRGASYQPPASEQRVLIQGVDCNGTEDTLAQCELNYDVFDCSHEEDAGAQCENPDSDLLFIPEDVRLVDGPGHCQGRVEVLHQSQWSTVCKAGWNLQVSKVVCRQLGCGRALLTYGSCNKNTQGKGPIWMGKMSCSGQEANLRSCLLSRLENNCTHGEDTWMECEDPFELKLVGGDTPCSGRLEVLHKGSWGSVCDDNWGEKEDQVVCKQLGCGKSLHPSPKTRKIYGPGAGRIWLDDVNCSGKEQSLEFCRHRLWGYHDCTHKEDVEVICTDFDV
The assay can be described thus: immunofluorescence co-localisation on peritoneal macrophages, confocal microscope (FIG. 3H). How it is done: Peritoneal macrophages isolated from AIM^{-/-} mice were plated on a Lab-Tek II chamber slide (NalgeNunk) and cultured for 2 h to let them attach to the slide. The cells were incubated with 10 μg/mL of DAMPs (mouse PRDX1-His, human PRDX1-His, human HMGB1, or mouse S100A9) with or without wild-type mouse or human rAIM (100 μg/mL) at 37° C. for 10 min. For mouse PRDX1, the mutants of 2CS or ΔSRCR3 were also used. Each ligand and AIM were immunostained with antibodies to His (for mouse and human PRDX1), HMGB1 or S100A9, followed by fluorescent-conjugated secondary antibodies. Nuclei were stained with 4′,6-diamidino-2-phenylindole (DAPI). The cells were analyzed under a florescence confocal microscope.

B1: mouse PRDX1-His (RPF757Mu01, USCN) (ligand, UniProt P35700 1-199, looked up)
chain: MSSGNAKIGYPAPNFKATAVMPDGQFKDISLSEYKGKYVVFFFYPLDFTFVCPTEIIAFSDRADEFKKLNCQVIGASVDSHFCHLAWINTPKKQGGLGPMNIPLISDPKRTIAQDYGVLKADEGISFRGLFIIDDKGILRQITINDLPVGRSVDEIIRLVQAFQFTDKHGEVCPAGWKPGSDTIKPDVNKSKEYFSKQK
notes: also called RPDX; not shown: His tag
On to B1, for which the binding result is reported as “binds”.
